From patent publication US20230372448A1, “THERAPEUTIC USE OF LONG-ACTING CONJUGATE OF TRIPLE AGONIST ACTING ON ALL OF GLUCAGON, GLP-1 AND GIP RECEPTORS AGAINST MULTIPLE SCLEROSIS” (HANMI PHARM. CO. ,LTD., priority 2020, published 2023)
Positions of bridges follow the written chain, without caps; N, C: chain ends. Non-standard residues stand in square brackets, D forms with d. No end group written: not given here. Aib = CC(C)(N)C(=O)O

T1: human GIP receptor (human, UniProt P48546 22-466)
T1 sequence (looked up): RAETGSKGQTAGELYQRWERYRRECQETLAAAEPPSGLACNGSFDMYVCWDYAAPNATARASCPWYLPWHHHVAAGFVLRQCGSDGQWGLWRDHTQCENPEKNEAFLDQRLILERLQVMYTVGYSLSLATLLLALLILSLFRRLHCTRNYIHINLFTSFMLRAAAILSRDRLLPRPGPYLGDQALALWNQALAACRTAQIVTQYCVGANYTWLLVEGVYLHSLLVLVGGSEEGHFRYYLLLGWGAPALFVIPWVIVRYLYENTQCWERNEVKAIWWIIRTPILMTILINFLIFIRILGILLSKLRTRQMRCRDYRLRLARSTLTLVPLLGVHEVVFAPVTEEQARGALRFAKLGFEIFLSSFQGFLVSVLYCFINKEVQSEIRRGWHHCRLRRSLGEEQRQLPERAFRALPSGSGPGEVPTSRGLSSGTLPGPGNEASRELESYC


Tests used:
[1] = tested on: pyridoxine-induced peripheral neuropathy in non-diabetic rodents; conditions: Exp Neurol. 2007; cited from earlier work
[2] = tested on: relapsing/remitting multiple sclerosis mouse model; conditions: Mol Neurobiol. 2018, cited from earlier work
human GLP-1 receptor = human GLP-1 receptor (human, UniProt P43220 24-463); assay: cell-based or functional assay
human GCG receptor = human GCG receptor (human, UniProt P47871 26-477); assay: cell-based or functional assay
human GIP receptor = molecular target: T1, human GIP receptor; assay: cell-based or functional assay

human GCG receptor, sequence (P47871 26-477): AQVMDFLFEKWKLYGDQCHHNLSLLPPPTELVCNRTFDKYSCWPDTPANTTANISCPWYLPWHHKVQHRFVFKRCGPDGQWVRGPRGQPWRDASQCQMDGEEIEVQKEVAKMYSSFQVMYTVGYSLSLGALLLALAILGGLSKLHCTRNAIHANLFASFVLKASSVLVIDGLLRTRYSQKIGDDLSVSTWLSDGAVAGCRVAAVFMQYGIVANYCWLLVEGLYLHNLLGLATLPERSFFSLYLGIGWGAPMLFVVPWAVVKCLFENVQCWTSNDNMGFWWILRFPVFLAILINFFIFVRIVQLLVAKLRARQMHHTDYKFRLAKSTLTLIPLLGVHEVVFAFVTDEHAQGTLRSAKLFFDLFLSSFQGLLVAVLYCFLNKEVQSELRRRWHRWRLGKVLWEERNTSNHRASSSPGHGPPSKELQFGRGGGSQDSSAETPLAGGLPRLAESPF

| Molecule | protection against pyridoxine-induced functional and morphological defects [1] | levels of inflammatory cytokines that increase during demyelination [2] | symptoms of multiple sclerosis ([2]; effect similar to that of fingolimod) | In vitro activity (%) compared with native peptide: vs GLP-1 (human GLP-1 receptor) [%] | In vitro activity (%) compared with native peptide: vs Glucagon (human GCG receptor) [%] | In vitro activity (%) compared with native peptide: vs GIP (human GIP receptor) [%] |
| --- | --- | --- | --- | --- | --- | --- |
| glucagon-like peptide-1 (HAEGTFTSDVSSYLEGQAAKEFIAWLVKGR; ends and bridges not checked; UniProt P01275 98-127, looked up) [GLP-1, a typical incretin hormone] | partially protected | – | – | – | – | – |
| exendin-4 | partially protected | reduced the levels of inflammatory cytokines | symptom alleviating effect | – | – | – |
| H[Aib]QGTFTSDYSKYLDERACQDFVQWLLDQGGPSSGAPPPS (not fully specified) [triple agonist of SEQ ID NO: 27] | – | – | – | 83.1 | 0.8 | 0.9 |
| H[Aib]QGTFTSDYSKYLDEKACKDFVQWLLDGGPSSGAPPPS (bridge 16-20; not fully specified) [triple agonist of SEQ ID NO: 32] | – | – | – | 151 | 1.7 | 8.8 |
| H[Aib]QGTFTSDYSKYLDEKACKEFVQWLLAQ (bridge 16-20; not fully specified) [triple agonist of SEQ ID NO: 31] | – | – | – | 135 | 2.2 | 2.4 |
| H[Aib]QGTFTSDYSKYLDEKAAKEFVQWLLNTC (bridge 16-20; not fully specified) [triple agonist of SEQ ID NO: 29] | – | – | – | 38.5 | 6 | < 0.1 |
| H[Aib]QGTFTSDYSKYLDEKAQKEFVQWLLDTC (bridge 16-20; not fully specified) [triple agonist of SEQ ID NO: 30] | – | – | – | 142 | 0.7 | 0.8 |
| H[Aib]QGTFTSDYSKYLDEKRAQEFVCWLLAQKGKKNDWKHNIT (not fully specified) [triple agonist of SEQ ID NO: 28] | – | – | – | 17.2 | 1.6 | < 0.1 |
